# Measured values taken from patent publication US20210253725A1 (BIONTECH, published 2021).
# T1: CD27 expressed on the cell surface of HT1080_CD27 cells (human, UniProt P26842 20-260)
# T1 sequence (looked up): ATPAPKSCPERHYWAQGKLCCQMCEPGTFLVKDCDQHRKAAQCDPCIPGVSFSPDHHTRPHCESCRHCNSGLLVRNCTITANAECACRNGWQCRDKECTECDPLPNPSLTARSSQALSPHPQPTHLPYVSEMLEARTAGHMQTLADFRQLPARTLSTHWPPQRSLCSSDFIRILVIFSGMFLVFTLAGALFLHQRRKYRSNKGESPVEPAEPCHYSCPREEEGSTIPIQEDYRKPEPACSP
# T2: CD27 protein (His-tagged, Sino Biological Inc. 10039-H08B1) (human, UniProt P26842 20-192)
# T2 construct: bought protein coated on ELISA plates; also called TNFRSF7; not shown: His tag
# T2 sequence (looked up): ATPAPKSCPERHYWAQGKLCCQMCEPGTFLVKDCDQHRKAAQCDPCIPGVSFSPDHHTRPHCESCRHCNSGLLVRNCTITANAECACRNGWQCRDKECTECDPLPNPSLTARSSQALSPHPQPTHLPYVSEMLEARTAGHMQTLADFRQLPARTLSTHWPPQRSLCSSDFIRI
# B1: P018.S.01.A.A06 (antibody, V domains shown)
# VH: QSVEESGGRLVTPGTPLTLTCTVSGIDLSTYAMSWVRQAPGKGLEWIGIIYGSGYTYYASWAKGRATISKTSSTTVDLKITSPTTEDTATYFCASGYGISSGNFLHFNLWGQGTLVTVSS
# VL: AYDMTQTPASVEVAVGGTVTIKCQASESIYFNLAWYQQKPGQRPKLLIYRASTLASGVSSRFKGSGSGTQFTLTISGVESADAATYYCQQGYDSSHIDNAFGGGTEVVVT
# notes: V regions on human Ig constant parts; also called AB27_3
# B2: P018.S.07.A.D05 (antibody, V domains shown)
# VH: QSLEESGGDLVKPEGSLTLTCTASGFSFSSSYWICWVRQAPGKGLEWIGCMITGRGNTYYATWAKGRFTISKTSSTTVTLQMTSLTAADTATYFCARGPGGADPINLWGPGTLVTVSS
# VL: DVVMTQTPASVSEPVGGTVTIKCQASQNIYNNLAWYQQKPGQPPKLLIYLASTLASGVPSRFEGSGSGTEFTLTISGVQSDDAATYYCQSTYDGSSYVPNAFGGGTEVVVK
# notes: V regions on human Ig constant parts; also called AB27_124
# B3: P018.S.05.A.E03 (antibody, V domains shown)
# VH: QSLEESGGRLVTPGGSLTLTCTVSGIDLSSYAMGWVRQAPGKGLEWIGYITYGGSTYYANWVNGRFTISKTSTMVDLKMTSLTAADTATYFCARLRAPYYYRIYFNLWGPGTLVTVSS
# VL: ALVMTQTPSSVEAAVGGTVTIKCQASQNIISALAWYQQKPGQPPKLLIYDASNLESGVPSRFKGSGSGTDFTLTISDLESADAATYYCQGAYDTNINDFGGGTEVVVK
# notes: V regions on human Ig constant parts; also called AB27_89
# B4: P018.S.10.A.E02 (antibody, V domains shown)
# VH: QEQLEESGGDLVKPEGSLTLTCTASGFSFSSSFYMCWVRQAPGKGLEWVACIYAEDSDYTYYASWAKGRFTISKTSSTTVTLQMTSLTAADTATYFCAREILYPTNTDSFDLWGPGTLVTVSS
# VL: AFELTQTPSSVEAAVGGTVTIKCQASESFSSRLAWYQQKPGQPPKLLIYRASTLASGVPSRFKGSGSGTDFTLTISDLESADAAAYYCQAYVGISSGGYAFGGGTEVVVG
# notes: V regions on human Ig constant parts; also called AB27_176
# B5: P018.S.03.A.G05 (antibody, V domains shown)
# VH: QSLEESGGDLVKPEGSLTLTCTASGFSFSSGGWICWVRQAPGRGLEWIACIYVGSSGTTHYASWAKGRFTISKTSSTTVTLQMTSLTAADTATYFCARGAVYGGGSYDNFHLWGPGTLVTVSS
# VL: AYDMTQTPASVSEPVGGTVTIKCQASQSIGSYLSWYQQKPGQRPKLLIYAASTLASGVQSRFKGSGSGTDYTLTISGVQSDDAATYYCQQGYNISNLDNTFGGGTEVVVK
# notes: V regions on human Ig constant parts; also called AB27_58
# B6: P018.S.09.A.E02 (antibody, V domains shown)
# VH: QSLEESGGRLVTPGTPLTLTCTASGFTISSHHMTWVRQAPGEGLEWLGVIFPSGHTYYTSWAKGRFTISRTSTTVDLKMASLTIEDTATYFCVRDVGYFTLWGQGTLVTVSS
# VL: AQVLTQTPSPVSAAVGGTVTISCQSSESVGGNNWLAWYQQKLGQPPKLLIYGASTLASGVPSRFSGSGSGTQFTLTISEVQSDDAATYYCQGYYSDVTNAFGGGTEVVVE
# notes: V regions on human Ig constant parts; also called AB27_153
# B7: P018.S.09.A.F06 (antibody, V domains shown)
# VH: QSVEESGGRLVTPGGSLTLTCSVSGIDLSSYAMNWVRQAPGKGLEWIGIISTGGSTYYANWAKGRFTISKTSTTVDLKITSPTTEDTATYICARDVGGTTVPYYFDLWGPGTLVTVSS
# VL: AYDMTQTPASMEVAVGGTVTIKCQASESISSWLAWYQQKPGQPPKPLIYEASRLASGVPSRFKGSGSGTEFTLTISGVESADAATYYCQQGYGSSDVHNIFGGGTEVVVK
# notes: V regions on human Ig constant parts; also called AB27_158
# B8: P018.S.06.A.H05 (antibody, V domains shown)
# VH: QSLEESGGDLVQPEGSLTLTCKASGFDFSSTYWICWVRQAPGKGLEWIGCIDDSYAYTYYASWAKGRFTISKPSSTTVTLQVTSLTVADTATYFCARDGYPGYGVGSFNLWGPGTLVTVSS
# VL: AIVMTQTPSSKSVPVGDTVTINCQASESVYSNNRLAWFQQKPGQPPKLLIYLASTLASGVPSRFKGSGSGTQFTLTISDVVSDDAATYYCAGYKSYSDDGTGFGGGTEVVVK
# notes: V regions on human Ig constant parts; also called AB27_112
# B9: P018.S.10.A.H05 (antibody, V domains shown)
# VH: QSLEESGGRLVTPGTPLTLTCTASGFSLSTYYMSWVRQAPGKGLEWIGIIYTSGSTYYASWAKGRFTISRNSTTVDLKITSPTTEDTATYFCARSRVPGDTTGLYYFNLWGPGTLVTVSS
# VL: ALVMTQTPASVSAAVEGTVTINCQASENIYSNLAWYQQKPGQPPKLLIYHTSNLASGVPSRFKGSGAGTEFTLTISDLESDDAATYYCQSAYDSSSSDTFTFGGGTEVVVK
# notes: V regions on human Ig constant parts; also called AB27_186
# B10: P018.S.06.A.A05 (antibody, V domains shown)
# VH: QSLEESGGRLVTPGTPLTLTCTVSGIDLSSYAMGWVRQAPGKGLELIGLIYASNRTHYATWAKGRFTISKSSTTVDLKATSLTTEDTATYFCGRYGRGSGGYYYGMDLWGPGTLVTVSS
# VL: DVVMTQTPASVEAAVGGTVTIKCQASQSGDNYLSWYQQKSGQPPKLLIYLASTLASGVPSRFRGSRSGTEYTLTISDLESADAATYYCQNYCAGSGVCVGVAFGGGTEVVVK
# notes: V regions on human Ig constant parts; also called AB27_97
# B11: P018.S.09.A.C02 (antibody, V domains shown)
# VH: QSVEESGGRLVTPGTPLTLTCTVSGIDLSSYVMSWVRQAPGKGLEWIGYIDYGGTAYYASWAKGRFTISKTSTTVELKITSPTIEDTATYFCARGGYGGYTLVTALWGPGTLVTVSS
# VL: DIVMTQTPASVSEPVGGTVTIKCQASQSISSYLSWYQQKPGQPPKLLIYSTSTLASGVSSRFKGSGSGTEYTLTISDLESADAATYYCQTYYGGGPFGNGFGGGTEVVVK
# notes: V regions on human Ig constant parts; also called AB27_147
# B12: P018.S.06.A.B01 (antibody, V domains shown)
# VH: QSLEESGGGLVKPEGSLTLTCTASGFSFSSSYWICWVRQAPGKGLEWIGCIYAGTFSDTFYASWTKGRFTISKTSSTTVTLQMTSLTGADTATYFCARGHYYYTDNYTANGYGRGLTRLDLWGQGTLVTVSS
# VL: AAVLTQTPSPVSAAVGGTVTISCQASQSVYNNNNLAWYQQKAGQPPKLLIYGASNLESGVPSRFKGSGSGTQFTLTISDLESDDAASYYCAGGYTTSGDNGFGGGTEVVVK
# notes: V regions on human Ig constant parts; also called AB27_98
# Target: T1, CD27 expressed on the cell surface of …
# Experiment: cell-based or functional assay
# Also: test concentration or dose not given here.
Binder,Functional assay Cross-linked by F(ab′)2 fragment IL-8 [abs. corr.],Functional assay IL-8 [abs. corr.]
B1,1.92,0.566
B2,1.64,-0.032
B3,1.92,0.208
B4,1.39,0.23
B5,1.27,0.031
B6,1.61,0.172
B7,2.03,0.58
B8,1.56,0.278
B9,1.11,-0.155
B10,1.09,0.433
B11,1.07,0.07
B12,1.18,0.106

# Target: T1, CD27 expressed on the cell surface of …
# Experiment: HT1080_CD27 cells, imaging
row,Binder,Cellular binding assay [RFU]
1,B1,287
2,B2,329
3,B3,322
4,B4,395
5,B5,269
6,B6,305
7,B7,218
8,B8,308
9,B9,313
10,B10,140
11,B11,323
12,B12,279

# Target: T2, CD27 protein (His-tagged, Sino …)
# Experiment: ELISA, coated His-tagged CD27
row,Binder,ELISA [abs. corr.]
1,B1,3.09
2,B2,3.08
3,B3,3.07
4,B4,3.02
5,B5,2.98
6,B6,2.98
7,B7,2.98
8,B8,2.98
9,B9,2.96
10,B10,2.95
11,B11,2.94
12,B12,2.94
